Source: paper PMC10705692

Legend:
[1] = whole-cell patch clamp, HEK293T, 10 s domoate; conditions: glycan lost; control: GluK2 WT
[2] = paired-pulse whole-cell patch clamp, tau recovery; conditions: glycan lost; control: GluK2 WT
[3] = whole-cell patch clamp, HEK293T, tau desensitization; conditions: glycan lost
[4] = whole-cell patch clamp, 3 ms glutamate, tau deactivation; conditions: glycan lost

B1: GluK2 KAR: T277A (protein)
parent chain: MKIISPVLSNLVFSRSIKVLLCLLWIGYSQGTTHVLRFGGIFEYVESGPMGAEELAFRFAVNTINRNRTLLPNTTLTYDTQKINLYDSFEASKKACDQLSLGVAAIFGPSHSSSANAVQSICNALGVPHIQTRWKHQVSDNKDSFYVSLYPDFSSLSRAILDLVQFFKWKTVTVVYDDSTGLIRLQELIKAPSRYNLRLKIRQLPADTKDAKPLLKEMKRGKEFHVIFDCSHEMAAGILKQALAMGMMTEYYHYIFTTLDLFALDVEPYRYSGVNMTGFRILNTENTQVSSIIEKWSMERLQAPPKPDSGLLDGFMTTDAALMYDAVHVVSVAVQQFPQMTVSSLQCNRHKPWRFGTRFMSLIKEAHWEGLTGRITFNKTNGLRTDFDLDVISLKEEGLEKIGTWDPASGLNMTESQKGKPANITDSLSNRSLIVTTILEEPYVLFKKSDKPLYGNDRFEGYCIDLLRELSTILGFTYEIRLVEDGKYGAQDDVNGQWNGMVRELIDHKADLAVAPLAITYVREKVIDFSKPFMTLGISILYRKPNGTNPGVFSFLNPLSPDIWMYILLAYLGVSCVLFVIARFSPYEWYNPHPCNPDSDVVENNFTLLNSFWFGVGALMQQGSELMPKALSTRIVGGIWWFFTLIIISSYTANLAAFLTVERMESPIDSADDLAKQTKIEYGAVEDGATMTFFKKSKISTYDKMWAFMSSRRQSVLVKSNEEGIQRVLTSDYAFLMESTTIEFVTQRNCNLTQIGGLIDSKGYGVGTPMGSPYRDKITIAILQLQEEGKLHMMKEKWWRGNGCPEEESKEASALGVQNIGGIFIVLAAGLVLSVFVAVGEFLYKSKKNAQLEKRSFCSAMVEELRMSLKCQRRLKHKPQAPVIVKTEEVINMHTFNDRRLPGKETMA
increases: other: desensitization rate [1] | other: rate of recovery from desensitization [2] | other: desensitization rate ([3]; control: GluK2 WT) | other: deactivation rate ([4]; control: GluK2 WT)

B2: GluK2 KAR: T277A/R775A (protein)
parent chain: MKIISPVLSNLVFSRSIKVLLCLLWIGYSQGTTHVLRFGGIFEYVESGPMGAEELAFRFAVNTINRNRTLLPNTTLTYDTQKINLYDSFEASKKACDQLSLGVAAIFGPSHSSSANAVQSICNALGVPHIQTRWKHQVSDNKDSFYVSLYPDFSSLSRAILDLVQFFKWKTVTVVYDDSTGLIRLQELIKAPSRYNLRLKIRQLPADTKDAKPLLKEMKRGKEFHVIFDCSHEMAAGILKQALAMGMMTEYYHYIFTTLDLFALDVEPYRYSGVNMTGFRILNTENTQVSSIIEKWSMERLQAPPKPDSGLLDGFMTTDAALMYDAVHVVSVAVQQFPQMTVSSLQCNRHKPWRFGTRFMSLIKEAHWEGLTGRITFNKTNGLRTDFDLDVISLKEEGLEKIGTWDPASGLNMTESQKGKPANITDSLSNRSLIVTTILEEPYVLFKKSDKPLYGNDRFEGYCIDLLRELSTILGFTYEIRLVEDGKYGAQDDVNGQWNGMVRELIDHKADLAVAPLAITYVREKVIDFSKPFMTLGISILYRKPNGTNPGVFSFLNPLSPDIWMYILLAYLGVSCVLFVIARFSPYEWYNPHPCNPDSDVVENNFTLLNSFWFGVGALMQQGSELMPKALSTRIVGGIWWFFTLIIISSYTANLAAFLTVERMESPIDSADDLAKQTKIEYGAVEDGATMTFFKKSKISTYDKMWAFMSSRRQSVLVKSNEEGIQRVLTSDYAFLMESTTIEFVTQRNCNLTQIGGLIDSKGYGVGTPMGSPYADKITIAILQLQEEGKLHMMKEKWWRGNGCPEEESKEASALGVQNIGGIFIVLAAGLVLSVFVAVGEFLYKSKKNAQLEKRSFCSAMVEELRMSLKCQRRLKHKPQAPVIVKTEEVINMHTFNDRRLPGKETMA
increases: other: desensitization rate ([3]; control: R775A) | other: deactivation rate ([4]; control: R775A)
